Source: patent US20240392024A1 (SHANGHAI CELGEN BIO PHARMACEUTICAL, published 2024)
Substitutions are numbered along the chain they refer to.

What was measured:
[1] = target: T1, recombinant cynomolgus monkey TNFR2 (Cyno. TNFR2) (Sino Biological, 90102-C021) (cynomolgus monkey, UniProt A0A2K5VET2 132-366); experiment: ELISA, coated cynomolgus TNFR2
T1 sequence: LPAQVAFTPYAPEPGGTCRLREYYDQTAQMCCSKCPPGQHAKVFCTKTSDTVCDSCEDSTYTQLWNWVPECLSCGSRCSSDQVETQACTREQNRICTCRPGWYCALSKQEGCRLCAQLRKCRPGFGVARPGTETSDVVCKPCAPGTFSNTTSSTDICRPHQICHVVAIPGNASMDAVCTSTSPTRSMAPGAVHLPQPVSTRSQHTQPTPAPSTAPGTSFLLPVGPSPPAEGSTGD
Protocol: (§1) After TMB development, the detection was performed using microplate reader: dual wavelength 450 nm/655 nm detection, and results were calculated by OD₄₅₀-OD₆₅₅.
(§2) Using the same method as above, the TNFR2 antigens of cynomolgus monkey and mouse (Sino Biological, 90102-C021 and 50128-M08H) were coated separately. The anti-human TNFR2 mouse monoclonal antibodies to be tested were gradient diluted, then added with the anti-mouse Fab segment secondary antibody (Jackson Immuno Research, 515-035-072), and TMB development was performed. ELISA was used to detect the binding of 8 strains of mouse monoclonal antibodies to recombinant mouse TNFR2 (mTNFR2) and cynomolgus monkey TNFR2 (Cyno. TNFR2).

[2] = target: T2, human TNFR2 on the cell membrane (human, UniProt P20333 23-461); experiment: flow cytometry, TNFR2-CHO cells
T2 construct: whole, on cells; One molecule for all cell formats; also called TNFR2-CHO cells; CHO-TNFR2
T2 sequence (looked up): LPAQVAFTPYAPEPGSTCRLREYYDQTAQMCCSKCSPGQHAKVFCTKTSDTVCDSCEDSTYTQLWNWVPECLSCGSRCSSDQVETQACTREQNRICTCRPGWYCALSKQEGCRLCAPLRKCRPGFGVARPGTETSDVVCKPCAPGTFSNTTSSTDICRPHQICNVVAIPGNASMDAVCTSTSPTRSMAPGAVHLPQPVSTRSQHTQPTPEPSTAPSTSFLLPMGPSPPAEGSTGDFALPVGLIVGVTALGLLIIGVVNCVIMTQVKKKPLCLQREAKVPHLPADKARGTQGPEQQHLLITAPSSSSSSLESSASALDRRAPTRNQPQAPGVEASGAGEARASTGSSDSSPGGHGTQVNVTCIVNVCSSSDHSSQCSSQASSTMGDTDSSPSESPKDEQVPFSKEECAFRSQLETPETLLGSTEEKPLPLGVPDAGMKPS
Protocol: (§3) Purified anti-human TNFR2 mouse monoclonal antibodies were co-incubated with TNFR2 overexpressing CHO cell lines (obtained routinely as follows: PCDNA3.4-TNFR2 was transfected into CHO cells, and stable high expression TNFR2 cell lines were obtained through drug screening and monoclonal sorting), and then stained. The antibody binding intensity was analyzed by flow cytometry. The specific steps are as follows: TNFR2-CHO cells were counted, centrifuged, resuspended, then added to a 96-deep well plate, and the supernatant was discarded. The anti-TNFR2 antibodies to be tested were gradient diluted, added to the 96-deep well plate. […] The samples were detected using Beckman CytoFLEX.

[3] = target: T3, recombinant human TNFR2 antigen (Kangdai, batch number A100114U) (human, UniProt P20333 23-257); experiment: ELISA, coated recombinant human TNFR2
T3 construct: also called hTNFR2; TNFR2-FC (Shanghai Saijin Biopharmaceutical Co., Ltd., Qiangke, catalog number A100114U); not shown: Fc part of the bought TNFR2-FC
T3 sequence (looked up): T1 sequence with G16S, P36S, Q117P, H164N, A210E, G216S, V223M
Protocol: as §1

[4] = target: T2, human TNFR2 on the cell membrane; experiment: flow cytometry on TNFR2-CHO cells
Protocol: as §3

[5] = target: T4, recombinant mouse TNFR2 (mTNFR2) (Sino Biological, 50128-M08H) (mouse, UniProt P25119 23-258); experiment: ELISA, plate coated with recombinant mouse TNFR2
T4 sequence (looked up): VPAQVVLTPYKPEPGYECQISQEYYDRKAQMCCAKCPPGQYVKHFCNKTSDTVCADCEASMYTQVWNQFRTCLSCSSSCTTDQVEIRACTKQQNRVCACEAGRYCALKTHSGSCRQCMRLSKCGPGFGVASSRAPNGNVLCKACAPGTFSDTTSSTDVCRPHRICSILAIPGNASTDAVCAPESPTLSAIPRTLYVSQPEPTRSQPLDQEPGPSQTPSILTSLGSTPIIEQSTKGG
Protocol: as §1, §2

[6] = target: T3, recombinant human TNFR2 antigen …; experiment: ELISA, plate coated with recombinant human TNFR2 antigen
Protocol: as §1

[7] = target: T1, recombinant cynomolgus monkey TNFR2 …; experiment: ELISA, plate coated with recombinant cynomolgus monkey TNFR2
Protocol: as §1, §2

B1: anti-human TNFR2 mouse monoclonal antibody 16D2 (antibody, V domains shown)
VH: EVQLQQSEPELVKPGASVKIPCKASGYTFTDYNMDWVKQSHGKSLEWIGDINPNNGVTIYNQKFKGKATLTVDKSSSTAYMELRSLTSEDTAVYYCVILEYFDYWGQGTTLTVSS
VL: DIVMTQSTSSMSVSLGDTVSITCHASQGISSNIGWLQQKPGKSFKGLIYHGTKLEDGVPSRFSGSGSGADYSLTISSLESEDFADYYCVQYAQFPRTFGGGTKLEIK
Question: Which EC50 [1] does the source give for B1 here?
Answer: Its EC50 is 0.0371 mg/L.

Question: And the EC50 [2]?
Answer: The EC50 was 5.71 mg/L.

Question: And the EC50 [3]?
Answer: The EC50 was 0.0218 mg/L.

Question: And the EC50 [4]?
Answer: Its EC50 is 38.3 nM.

Question: Does B1 bind [5]?
Answer: Result: no binding

Question: What about the EC50 [6] of the same binder?
Answer: The EC50 was 0.146 nM.

Question: And the EC50 [7]?
Answer: Its EC50 is 0.248 nM.
